± gives the standard deviation of the averaged measurements.
Assay: total protein half-life in vivo (active degradation + dilution); higher = more stable protein
[1] = E. coli NCM3722 delta-clpP delta-lon delta-hslV, growth: N-lim chemostat, doubling time 6 h
[2] = E. coli NCM3722 delta-clpP, growth: N-lim chemostat, doubling time 6 h
[3] = E. coli NCM3722 delta-lon, growth: N-lim chemostat, doubling time 6 h
[4] = wild type E. coli NCM3722, growth: C-lim chemostat, doubling time 6 h
[5] = wild type E. coli NCM3722, growth: C-lim chemostat, doubling time 12 h
[6] = wild type E. coli NCM3722, growth: N-lim chemostat, doubling time 6 h
[7] = wild type E. coli NCM3722, growth: N-lim chemostat, doubling time 12 h
[8] = wild type E. coli NCM3722, growth: P-lim chemostat, doubling time 6 h
[9] = wild type E. coli NCM3722, growth: P-lim chemostat, doubling time 12 h
[10] = E. coli NCM3722 delta-hslV, growth: N-lim chemostat, doubling time 6 h
[11] = E. coli NCM3722 delta-smpB, growth: N-lim chemostat, doubling time 6 h
[12] = wild type E. coli NCM3722, growth: C-lim chemostat, doubling time 3 h

Row | Sequence | total protein half-life in vivo [1] [h] | total protein half-life in vivo [2] [h] | total protein half-life in vivo [3] [h] | total protein half-life in vivo [4] [h] | total protein half-life in vivo [5] [h] | total protein half-life in vivo [6] [h] | total protein half-life in vivo [7] [h] | total protein half-life in vivo [8] [h] | total protein half-life in vivo [9] [h] | total protein half-life in vivo [10] [h] | total protein half-life in vivo [11] [h] | total protein half-life in vivo [12] [h]
1 | MRWILFILFCLLGAPAHAVSIPGVTTTTTTDSTTEPAPEPDIEQKKAAYGALADVLDNDTSRKELIDQLRTVAATPPAEPVPKIVPPTLVEEQTVLQKVTEVSRHYGEALSARFGQLYRNITGSPHKPFNPQTFSNALTHFSMLAVLVFGFYWLIRLCALPLYRKMGQWARQKNRERSNWLQLPAMIIGAFIIDLLLLALTLFVGQVLSDNLNAGSRTIAFQQSLFLNAFALIEFFKAVLRLIFCPNVAELRPFTIQDESARYWSRRLSWLSSLIGYGLIVAVPIISNQVNVQIGALANVIIMLCMTVWALYLIFRNKKEITQHLLNFAEHSLAFFSLFIRAFALVWHWLASAYFIVLFFFSLFDPGNSLKFMMGATVRSLAIIGIAAFVSGMFSRWLAKTITLSPHTQRNYPELQKRLNGWLSAALKTARILTVCVAVMLLLSAWGLFDFWNWLQNGAGQKTVDILIRIALILFFSAVGWTVLASLIENRLASDIHGRPLPSARTRTLLTLFRNALAVIISTITIMIVLSEIGVNIAPLLAGAGALGLAISFGSQTLVKDIITGVFIQFENGMNTGDLVTIGPLTGTVERMSIRSVGVRQDTGAYHIIPWSSITTFANFVRGIGSVVANYDVDRHEDADKANQALKDAVAELMENEEIRGLIIGEPNFAGIVGLSNTAFTLRVSFTTLPLKQWTVRFALDSQVKKHFDLAGVRAPVQTYQVLPAPGATPAEPLPPGEPTL | 4.93 ± 1 | 6.1 ± 0.28 | 5.15 ± 0.43 | 2.55 ± 2 | 6.41 ± 4.3 | 4.92 | 9.64 ± 0.63 | 6.83 ± 0.65 | 13 ± 1.4 |  |  | 
2 | MIVISRHVAIPDGELEITAIRAQGAGGQHVNKTSTAIHLRFDIRASSLPEYYKERLLAASHHLISSDGVIVIKAQEYRSQELNREAALARLVAMIKELTTEKKARRPTRPTRASKERRLASKAQKSSVKAMRGKVRSGRE |  | 3.47 | 5 ± 0.37 | 4.63 | 6.61 | 4.19 | 8.89 | 4.91 |  | 4.86 | 4.58 | 2.4
3 | MQPNDITFFQRFQDDILAGRKTITIRDESESHFKTGDVLRVGRFEDDGYFCTIEVTATSTVTLDTLTEKHAEQENMTLTELKKVIADIYPGQTQFYVIEFKCL |  | 5.77 ± 0.22 | 6.02 ± 0.22 | 5.2 ± 1.4 | 10.4 ± 3.3 | 6.12 ± 0.24 | 11.3 ± 0.97 | 6.47 ± 0.56 | 14 ± 0.55 | 5.77 ± 0.14 | 6.22 ± 0.28 | 3.49 ± 0.34
4 | MLSTLRRTLFALLACASFIVHAAAPDEITTAWPVNVGPLNPHLYTPNQMFAQSMVYEPLVKYQADGSVIPWLAKSWTHSEDGKTWTFTLRDDVKFSNGEPFDAEAAAENFRAVLDNRQRHAWLELANQIVDVKALSKTELQITLKSAYYPFLQELALPRPFRFIAPSQFKNHETMNGIKAPIGTGPWILQESKLNQYDVFVRNENYWGEKPAIKKITFNVIPDPTTRAVAFETGDIDLLYGNEGLLPLDTFARFSQNPAYHTQLSQPIETVMLALNTAKAPTNELAVREALNYAVNKKSLIDNALYGTQQVADTLFAPSVPYANLGLKPSQYDPQKAKALLEKAGWTLPAGKDIREKNGQPLRIELSFIGTDALSKSMAEIIQADMRQIGADVSLIGEEESSIYARQRDGRFGMIFHRTWGAPYDPHAFLSSMRVPSHADFQAQQGLADKPLIDKEIGEVLATHDETQRQALYRDILTRLHDEAVYLPISYISMMVVSKPELGNIPYAPIATEIPFEQIKPVKP | 6.58 | 6.35 | > 8 | > 8 | > 16 | 6.2 | > 16 | 6.61 |  | > 8 |  | 
5 | MKSPAPSRPQKMALIPACIFLCFAALSVQAEETPVTPQPPDILLGPLFNDVQNAKLFPDQKTFADAVPNSDPLMILADYRMQQNQSGFDLRHFVNVNFTLPKEGEKYVPPEGQSLREHIDGLWPVLTRSTENTEKWDSLLPLPEPYVVPGGRFREVYYWDSYFTMLGLAESGHWDKVADMVANFAHEIDTYGHIPNGNRSYYLSRSQPPFFALMVELLAQHEGDAALKQYLPQMQKEYAYWMDGVENLQAGQQEKRVVKLQDGTLLNRYWDDRDTPRPESWVEDIATAKSNPNRPATEIYRDLRSAAASGWDFSSRWMDNPQQLNTLRTTSIVPVDLNSLMFKMEKILARASKAAGDNAMANQYETLANARQKGIEKYLWNDQQGWYADYDLKSHKVRNQLTAAALFPLYVNAAAKDRANKMATATKTHLLQPGGLNTTSVKSGQQWDAPNGWAPLQWVATEGLQNYGQKEVAMDISWHFLTNVQHTYDREKKLVEKYDVSTTGTGGGGGEYPLQDGFGWTNGVTLKMLDLICPKEQPCDNVPATRPTVKSATTQPSTKEAQPTP | 6.13 ± 0.28 |  | 6.16 ± 0.95 | 6.59 ± 0.25 | 11.2 ± 0.94 | 6.28 ± 0.098 | 14.4 ± 0.85 |  | 14.4 ± 1.6 | 7.29 ± 0.5 | 5.94 ± 0.87 | 3.51 ± 0.67
6 | MDNVELSPATRWGMIATGLLQGLVCYLLIAWLSGKNHSWIVYGVPATVAFSSVLLFSVISFKQKRLWGWLALVFIATLGMSGWLKWQTDGMNPWRAEKALWDFGCYLLLMAMLLLPWIQQSLRIRNDSSRYRYFYQSVWHNVLILLVIFLANGLTWLVLLLWSELFKLVGITFFNTLFFATDWFIYLTLGLVTALAVILARTQSRLIDSIQKLFTLIATGLLPLVSLLTLMFIITLPFTGLSAISRHISAAGLLLTLAFLQLILMAIVRDPQKASLPWTGPLRCLIKTALLVAPLYVFVAAWALWLRVAQYGWTVDRLQGVLAVLVLLVWSLGYFVSIVWRKGQNPVVLQGKVNLAVSLLVLVILVLLNSPVLDSMRISVNSHMARYQSGKNTSDQVTIYMLEQSGRYGRAALESLKSDAGFMKDPKRARDLLMALDGEQHLQQQVSEKVLADNVLIAPGSVKPDATFWSALIQDRYNVMTCIEKDACVLVEQDLNSDGQAERILFAFNDDRVIVYGFDSDRKEWDALDMSLLPNEITKEKLLTAAKDGKLGTKPKAWRDLVVDGERLNVNLNE | 4.79 | 3.51 | 3.27 | 3.86 ± 0.18 | 6.23 |  |  |  | 3.39 | 3.21 | 2.97 ± 0.52 | 3.78
7 | MPEATPFQVMIVDDHPLMRRGVRQLLELDPGSEVVAEAGDGASAIDLANRLDIDVILLDLNMKGMSGLDTLNALRRDGVTAQIIILTVSDASSDVFALIDAGADGYLLKDSDPEVLLEAIRAGAKGSKVFSERVNQYLREREMFGAEEDPFSVLTERELDVLHELAQGLSNKQIASVLNISEQTVKVHIRNLLRKLNVRSRVAATILFLQQRGAQ | 5.05 ± 0.31 | 2.4265 ± 0.00011 | 4.47 ± 1.4 | 3.41 ± 0.22 | 5.71 ± 1 | 2.3 ± 0.18 | 2.86 ± 0.24 | 2.62 ± 0.31 | 4.65 ± 0.4 | 2.17 ± 0.36 | 2.02 ± 0.099 | 2.08 ± 0.15

From the supplement of paper PMC11246515
